According to patent publication US6379665B1, “Phospholipase D polypeptide and DNA sequences” (Onyx Pharmaceuticals, Inc., priority 1996, dated 2002):

Experiments:
HL-60 cells = test: RT-PCR quantification of hPLD1a and hPLD1b during dbcAMP-induced HL-60 cell differentiation; format: cell-based, human; conditions: 0.5 mM dbcAMP; for increase in level (printed as activity) on day 1: day 1, RT-PCR; for increase in level (printed as activity) on day 2: day 2, RT-PCR; for increase in level (printed as activity) on day 3: day 3, RT-PCR
Procedure: To analyze changes in the levels of hPLD1 a and hPLD1b during HL-60 cell differentiation induced by dcbAMP, HL-60 cells maintained in RPMI-1640 medium supplemented with 10% fetal bovine serum, 100 units/ml penicillin and 100 µg/ml streptomycin in a humidified atmosphere containing 5% CO2, at 37 C. were grown in RPMI-1640 medium without fetal bovine serum for 24 hours. Differentiation was initiated by the addition of 0.5 mM dbcAMP. Levels of PLD1a and PLD1b were quantified by RT-PCR. Total RNA was isolated from the HL-60 cells at the exponential growth stage by the acid guanidine thiocyanate method following the protocol of Chomczynski, Anal. Biochem. 162: 156-62(1992). Two g of RNA was reverse transcribed by using random hexamer mixed primers. The number of amplification cycles were determined to individual primer sets in order to maintain exponential rate of product amplification. Amplified DNA fragments were subjected to electrophoresis on 1.5% agarose gel and visualized by ethidium bromide staining. The intensity of bands was quantified by a densitometer (Atto Densitograph, Tokyo, Japan). Primer A (Forward): nucleotides 1475 through 1491; primer B (reverse) nucleotides 2133 through 2113 of SEQ ID NO: 1. Amplification conditions used were 94 C. for 30 seconds, 60 C. for 1 minute, and 72 C. for 1 minute; 25-27 cycles.

[1] = substrate specificity and transphosphatidylation assay of hPLD1a; format: biochemical
Procedure: Samples of the reaction products were applied to a 1 ml HPLC column of Source 15S resin (Pharmacia Biotech Inc.) and washed with 10 ml of H2O and eluted with a 30 ml linear gradient of 0-1 M CH3COONH4 in water at a flow rate of 1 ml/min. 1 ml fractions were collected and their radioactivity determined by liquid scintillation counting. Compounds were identified by reference to authentic standards. For analysis of phospholipid products, the vescicles were of standard composition except that approximately 10-20×10^3 dpm of [^32P]PC, [^32P]PE or [^32P]PI (specific radioactivity 10,000 dpm/nmol) was substituted for the [^3H]PC. Incubations were exactly as described except that transphosphatidylation assay contained 2% v/v EtOH. The assays were terminated by addition of 232 l of 1:1 CHCl2, MeOH. After mixing and centrifugation, the lower phases were removed, dried under vacuum, and analyzed by TLC on oxalate-impregnated Whatman 60A silica gel plates in a solvent system of CHCl2, MeOH:acetic acid (13:3:1, v/v). […]
To assess hPLD1a's substrate specificity, the standard PLD assay was carried out using [^32P]PE and [^32P]PI following the method as describe in Brown, Cell 75: 1137-44 (1993). […] To determine whether hPLD1a was capable of transphosphatidylase activity, EtOH was added to the reaction mixture and the products analyzed by thin layer chromatography. […]

[2] = standard headgroup release assay, fractions of hPLD1a baculovirus-infected Sf9 cells; format: biochemical; conditions: Sf9 cells infected 48 hours
Procedure: To determine the activity encoded by recombinant hPLD1a, control and hPLD1a-encoding baculovirus-infected Sf9 cells were assessed using a standard headgroup release assay that measures the amount of tritiated headgroup (e.g. [^3H]choline) liberated by hydrolysis of the labeled substrate [^3H]PC. The assay procedure measures release of the choline headgroup from the radiolabeled PC and is based on a protocol previously described in Brown, Cell 75:1137-44 (1993). Using standard separation techniques, cytosolic and membrane fractions were prepared from uninfected Sf9 cells or Sf9 cells infected for 48 hours with the hPLD1 expressing baculovirus vector. Sf9 cells infected with native baculovirus vector or PLC-expressing baculovirus vector yielded modest PLD activity levels similar to untransfected cells.

Molecule	increase in level (printed as activity) on day 1 (HL-60 cells)	increase in level (printed as activity) on day 2 (HL-60 cells)	increase in level (printed as activity) on day 3 (HL-60 cells)	transphosphatidylase activity ([1]; EtOH added, [^32P]PC, TLC)	hydrolysis of PE or PI ([1]; [^32P]PE and [^32P]PI as substrates)	cytosolic PLD activity above control ([2]; cytosolic fraction) [fold]	membrane-associated PLD activity above control ([2]; membrane fraction) [fold]	increase over the 3 day differentiation period (HL-60 cells; 3 days, RT-PCR)
hPLD1b: human phospholipase D1b splice variant, approximately 1036 amino acid protein, SEQ ID NO:5 (protein, listed as Homo sapiens) MSLKNEPRVNTSALQKIAADMSNIIENLDTRELHFEGEEVDYDVSPSDPKIQEVYIPFSAIYNTQGFKEPNIQTYLSGCPIKAQVLEVERFTSTTRVPSINLYTIELTHGEFKWQVKRKFKHFQEFHRELLKYKAFIRIPIPTRRHTFRRQNVREEPREMPSLPRSSENMIREEQFLGRRKQLEDYLTKILKMPMYRNYHATTEFLDISQLSFIHDLGPKGIEGMIMKRSGGHRIPGLNCCGQGRACYRWSKRWLIVKDSFLLYMKPDSGAIAFVLLVDKEFKIKVGKKETETKYGIRIDNLSRTLILKCNSYRHARWWGGAIEEFIQKHGTNFLKDHRFGSYAAIQENALAKWYVNAKGYFEDVANAMEEANEEIFITDWWLSPEIFLKRPVVEGNRWRLDCILKRKAQQGVRIFIMLYKEVELALGINSEYTKRTLMRLHPNIKVMRHPDHVSSTVYLWAHHEKLVIIDQSVAFVGGIDLAYGRWDDNEHRLTDVGSVKRVTSGPSLGSLPPAAMESMESLRLKDKNEPVQNLPIQKSIDDVDSKLKGIGKPRKFSKFSLYKQLHRHHLHDADSISSIDSTSNTGSIRSLQTGVGELHGETRFWHGKDYCNFVFKDWVQLDKPFADFIDRYSTPRMPWHDIASAVHGKAARDVARHFIQRWNFTKIMKSKYRSLSYPFLLPKSQTTAHELRYQVPGSVHANVQLLRSAADWSAGIKYHEESIHAAYVHVIENSRHYIYIENQFFISCADDKVVFNKIGDAIAQRILKAHRENQKYRVYVVIPLLPGFEGDISTGGGNALQAIMHFNYRTMCRGENSILGQLKAELGNQWINYISFCGLRTHAELEGNLVTELIYVHSKLLIADDNTVIIGSANINDRSMLGKRDSEMAVIVQDTETVPSVMDGKEYQAGRFARGLRLQCFRVVLGYLDDPSEDIQDPVSDKFFKEVWVSTAARNATIYDKVFRCLPNDEVHNLIQLRDFINKPVLAKEDPIRAEEELKKIRGFLVQFPFYFLSEESLLPSVGTKEAIVPMEVWT	less than 2 fold	approximately 3 fold	approximately 3.5 fold	–	–	–	–	–
hPLD1a: human phospholipase D1a, approximately 1074 amino acid protein, SEQ ID NO:2 (protein, listed as Homo sapiens) MSLKNEPRVNTSALQKIAADMSNIIENLDTRELHFEGEEVDYDVSPSDPKIQEVYIPFSAIYNTQGFKEPNIQTYLSGCPIKAQVLEVERFTSTTRVPSINLYTIELTHGEFKWQVKRKFKHFQEFHRELLKYKAFIRIPIPTRRHTFRRQNVREEPREMPSLPRSSENMIREEQFLGRRKQLEDYLTKILKMPMYRNYHATTEFLDISQLSFIHDLGPKGIEGMIMKRSGGHRIPGLNCCGQGRACYRWSKRWLIVKDSFLLYMKPDSGAIAFVLLVDKEFKIKVGKKETETKYGIRIDNLSRTLILKCNSYRHARWWGGAIEEFIQKHGTNFLKDHRFGSYAAIQENALAKWYVNAKGYFEDVANAMEEANEEIFITDWWLSPEIFLKRPVVEGNRWRLDCILKRKAQQGVRIFIMLYKEVELALGINSEYTKRTLMRLHPNIKVMRHPDHVSSTVYLWAHHEKLVIIDQSVAFVGGIDLAYGRWDDNEHRLTDVGSVKRVTSGPSLGSLPPAAMESMESLRLKDKNEPVQNLPIQKSIDDVDSKLKGIGKPRKFSKFSLYKQLHRHHLHDADSISSIDSTSSYFNHYRSHHNLIHGLKPHFKLFHPSSESEQGLTRPHADTGSIRSLQTGVGELHGETRFWHGKDYCNFVFKDWVQLDKPFADFIDRYSTPRMPWHDIASAVHGKAARDVARHFIQRWNFTKIMKSKYRSLSYPFLLPKSQTTAHELRYQVPGSVHANVQLLRSAADWSAGIKYHEESIHAAYVHVIENSRHYIYIENQFFISCADDKVVFNKIGDAIAQRILKAHRENQKYRVYVVIPLLPGFEGDISTGGGNALQAIMHFNYRTMCRGENSILGQLKAELGNQWINYISFCGLRTHAELEGNLVTELIYVHSKLLIADDNTVIIGSANINDRSMLGKRDSEMAVIVQDTETVPSVMDGKEYQAGRFARGLRLQCFRVVLGYLDDPSEDIQDPVSDKFFKEVWVSTAARNATIYDKVFRCLPNDEVHNLIQLRDFINKPVLAKEDPIRAEEELKKIRGFLVQFPFYFLSEESLLPSVGTKEAIVPMEVWT	approximately 3 fold	approximately 4 fold	less than 4 fold	catalyzes the formation of [^32P]phosphatidylethanol	unable to hydrolyze PE or PI	32	15	–
PLD1: purified recombinant mammalian PLD1 (SEQ ID NOS:2 or 5), a/b form not specified (protein, UniProt Q13393 1-1074, looked up) Phospholipase D1: MSLKNEPRVNTSALQKIAADMSNIIENLDTRELHFEGEEVDYDVSPSDPKIQEVYIPFSAIYNTQGFKEPNIQTYLSGCPIKAQVLEVERFTSTTRVPSINLYTIELTHGEFKWQVKRKFKHFQEFHRELLKYKAFIRIPIPTRRHTFRRQNVREEPREMPSLPRSSENMIREEQFLGRRKQLEDYLTKILKMPMYRNYHATTEFLDISQLSFIHDLGPKGIEGMIMKRSGGHRIPGLNCCGQGRACYRWSKRWLIVKDSFLLYMKPDSGAIAFVLLVDKEFKIKVGKKETETKYGIRIDNLSRTLILKCNSYRHARWWGGAIEEFIQKHGTNFLKDHRFGSYAAIQENALAKWYVNAKGYFEDVANAMEEANEEIFITDWWLSPEIFLKRPVVEGNRWRLDCILKRKAQQGVRIFIMLYKEVELALGINSEYTKRTLMRLHPNIKVMRHPDHVSSTVYLWAHHEKLVIIDQSVAFVGGIDLAYGRWDDNEHRLTDVGSVKRVTSGPSLGSLPPAAMESMESLRLKDKNEPVQNLPIQKSIDDVDSKLKGIGKPRKFSKFSLYKQLHRHHLHDADSISSIDSTSSYFNHYRSHHNLIHGLKPHFKLFHPSSESEQGLTRPHADTGSIRSLQTGVGELHGETRFWHGKDYCNFVFKDWVQLDKPFADFIDRYSTPRMPWHDIASAVHGKAARDVARHFIQRWNFTKIMKSKYRSLSYPFLLPKSQTTAHELRYQVPGSVHANVQLLRSAADWSAGIKYHEESIHAAYVHVIENSRHYIYIENQFFISCADDKVVFNKIGDAIAQRILKAHRENQKYRVYVVIPLLPGFEGDISTGGGNALQAIMHFNYRTMCRGENSILGQLKAELGNQWINYISFCGLRTHAELEGNLVTELIYVHSKLLIADDNTVIIGSANINDRSMLGKRDSEMAVIVQDTETVPSVMDGKEYQAGRFARGLRLQCFRVVLGYLDDPSEDIQDPVSDKFFKEVWVSTAARNATIYDKVFRCLPNDEVHNLIQLRDFINKPVLAKEDPIRAEEELKKIRGFLVQFPFYFLSEESLLPSVGTKEAIVPMEVWT	–	–	–	–	–	–	–	3-4 fold
